Assay results published in US20220281948A1 (UNIVERSITY HEALTH NETWORK, published 2022).

B1: wild-type DP4 (DPA1*01:03 / DPB1*04:01) on K562 cells (other, human)
MHC II alpha: not shown
MHC II beta: not shown
notes: whole, on cells; also called HLA-DP4
B2: biotinylated recombinant wild-type DP4 (extracellular domains of DPA1*01:03 and wild-type DPB1*04:01, leucine zippers) (other)
MHC II alpha: IKADHVSTYAAFVQTHRPTGEFMFEFDEDEMFYVDLDKKETVWHLEEFGQAFSFEAQGGLANIAILNNNLNTLIQRSNHTQATNDPPEVTVFPKEPVELGQPNTLICHIDKFFPPVLNVTWLCNGELVTEGVAESLFLPRTDYSFHKFHYLTFVPSAEDFYDCRVEHWGLDQPLLKHWEAQEPIQMPETTETGGGGSLEIRAAFLRQRNTALRTEVAELEQEVQRLENEVSQYETRYGPLGGGKGSHHHHHHHHHH
MHC II beta: RATPENYLFQGRQECYAFNGTQRFLERYIYNREEFARFDSDVGEFRAVTELGRPAAEYWNSQKDILEEKRAVPDRMCRHNYELGGPMTLQRRVQPRVNVSPSKKGPLQHHNLLVCHVTDFYPGSIQVRWFLNGQEETAGVVSTNLIRNGDWTFQILVMLEMTPQQGDVYTCQVEHTSLDSPVTVEWKAQSDSARSKGGGGSLEIEAAFLERENTALETRVAELRQRVQRLRNRVSQYRTRYGPLGGGKGSGLNDIFEAQKIEWHE
notes: also called biotinylated wild-type DP4 (ligand)
B3: biotinylated recombinant DP4^[change]/[change] (extracellular domains of DPA1*01:03 and DPB1*04:01 [ (other)
MHC II alpha: IKADHVSTYAAFVQTHRPTGEFMFEFDEDEMFYVDLDKKETVWHLEEFGQAFSFEAQGGLANIAILNNNLNTLIQRSNHTQATNDPPEVTVFPKEPVELGQPNTLICHIDKFFPPVLNVTWLCNGELVTEGVAESLFLPRTDYSFHKFHYLTFVPSAEDFYDCRVEHWGLDQPLLKHWEAQEPIQMPETTETGGGGSLEIRAAFLRQRNTALRTEVAELEQEVQRLENEVSQYETRYGPLGGGKGSHHHHHHHHHH
MHC II beta: RATPENYLFQGRQECYAFNGTQRFLERYIYNREEFARFDSDVGEFRAVTELGRPAAEYWNSQKDILEEKRAVPDRMCRHNYELGGPMTLQRRVQPRVNVSPSKKGPLQHHNWLVCHVTDFYPGSIQVRWFLNGQEETAGVMSTNLIRNGDWTFQILVMLEMTPQQGDVYTCQVEHTSLDSPVTVEWKAQSDSARSKGGGGSLEIEAAFLERENTALETRVAELRQRVQRLRNRVSQYRTRYGPLGGGKGSGLNDIFEAQKIEWHE
B4: V114M (other)
DP alpha chain: IKADHVSTYAAFVQTHRPTGEFMFEFDEDEMFYVDLDKKETVWHLEEFGQAFSFEAQGGLANIAILNNNLNTLIQRSNHTQATNDPPEVTVFPKEPVELGQPNTLICHIDKFFPPVLNVTWLCNGELVTEGVAESLFLPRTDYSFHKFHYLTFVPSAEDFYDCRVEHWGLDQPLLKHWEAQEPIQMPETTET
DP beta chain: RATPENYLFQGRQECYAFNGTQRFLERYIYNREEFARFDSDVGEFRAVTELGRPAAEYWNSQKDILEEKRAVPDRMCRHNYELGGPMTLQRRVQPRVNVSPSKKGPLQHHNLLMCHVTDFYPGSIQVRWFLNGQEETAGVVSTNLIRNGDWTFQILVMLEMTPQQGDVYTCQVEHTSLDSPVTVEWKAQSDSARSK
notes: also called DP4 with the single V114M substitution on K562 cells
B5: M158I (other)
DP alpha chain: IKADHVSTYAAFVQTHRPTGEFMFEFDEDEMFYVDLDKKETVWHLEEFGQAFSFEAQGGLANIAILNNNLNTLIQRSNHTQATNDPPEVTVFPKEPVELGQPNTLICHIDKFFPPVLNVTWLCNGELVTEGVAESLFLPRTDYSFHKFHYLTFVPSAEDFYDCRVEHWGLDQPLLKHWEAQEPIQMPETTET
DP beta chain: RATPENYLFQGRQECYAFNGTQRFLERYIYNREEFARFDSDVGEFRAVTELGRPAAEYWNSQKDILEEKRAVPDRMCRHNYELGGPMTLQRRVQPRVNVSPSKKGPLQHHNLLVCHVTDFYPGSIQVRWFLNGQEETAGVVSTNLIRNGDWTFQILVILEMTPQQGDVYTCQVEHTSLDSPVTVEWKAQSDSARSK
notes: also called DP4 with the single M158I substitution on K562 cells
B6: L112W/V114M/M158I (other)
DP alpha chain: IKADHVSTYAAFVQTHRPTGEFMFEFDEDEMFYVDLDKKETVWHLEEFGQAFSFEAQGGLANIAILNNNLNTLIQRSNHTQATNDPPEVTVFPKEPVELGQPNTLICHIDKFFPPVLNVTWLCNGELVTEGVAESLFLPRTDYSFHKFHYLTFVPSAEDFYDCRVEHWGLDQPLLKHWEAQEPIQMPETTET
DP beta chain: RATPENYLFQGRQECYAFNGTQRFLERYIYNREEFARFDSDVGEFRAVTELGRPAAEYWNSQKDILEEKRAVPDRMCRHNYELGGPMTLQRRVQPRVNVSPSKKGPLQHHNWLMCHVTDFYPGSIQVRWFLNGQEETAGVVSTNLIRNGDWTFQILVILEMTPQQGDVYTCQVEHTSLDSPVTVEWKAQSDSARSK
notes: also called DP4 reversion mutant on K562 cells
B7: L112W/M158I (other)
DP alpha chain: IKADHVSTYAAFVQTHRPTGEFMFEFDEDEMFYVDLDKKETVWHLEEFGQAFSFEAQGGLANIAILNNNLNTLIQRSNHTQATNDPPEVTVFPKEPVELGQPNTLICHIDKFFPPVLNVTWLCNGELVTEGVAESLFLPRTDYSFHKFHYLTFVPSAEDFYDCRVEHWGLDQPLLKHWEAQEPIQMPETTET
DP beta chain: RATPENYLFQGRQECYAFNGTQRFLERYIYNREEFARFDSDVGEFRAVTELGRPAAEYWNSQKDILEEKRAVPDRMCRHNYELGGPMTLQRRVQPRVNVSPSKKGPLQHHNWLVCHVTDFYPGSIQVRWFLNGQEETAGVVSTNLIRNGDWTFQILVILEMTPQQGDVYTCQVEHTSLDSPVTVEWKAQSDSARSK
notes: as for B6
B8: V114M/M158I (other)
DP alpha chain: IKADHVSTYAAFVQTHRPTGEFMFEFDEDEMFYVDLDKKETVWHLEEFGQAFSFEAQGGLANIAILNNNLNTLIQRSNHTQATNDPPEVTVFPKEPVELGQPNTLICHIDKFFPPVLNVTWLCNGELVTEGVAESLFLPRTDYSFHKFHYLTFVPSAEDFYDCRVEHWGLDQPLLKHWEAQEPIQMPETTET
DP beta chain: RATPENYLFQGRQECYAFNGTQRFLERYIYNREEFARFDSDVGEFRAVTELGRPAAEYWNSQKDILEEKRAVPDRMCRHNYELGGPMTLQRRVQPRVNVSPSKKGPLQHHNLLMCHVTDFYPGSIQVRWFLNGQEETAGVVSTNLIRNGDWTFQILVILEMTPQQGDVYTCQVEHTSLDSPVTVEWKAQSDSARSK
notes: as for B6
B9: L112W/V114M (other)
DP alpha chain: IKADHVSTYAAFVQTHRPTGEFMFEFDEDEMFYVDLDKKETVWHLEEFGQAFSFEAQGGLANIAILNNNLNTLIQRSNHTQATNDPPEVTVFPKEPVELGQPNTLICHIDKFFPPVLNVTWLCNGELVTEGVAESLFLPRTDYSFHKFHYLTFVPSAEDFYDCRVEHWGLDQPLLKHWEAQEPIQMPETTET
DP beta chain: RATPENYLFQGRQECYAFNGTQRFLERYIYNREEFARFDSDVGEFRAVTELGRPAAEYWNSQKDILEEKRAVPDRMCRHNYELGGPMTLQRRVQPRVNVSPSKKGPLQHHNWLMCHVTDFYPGSIQVRWFLNGQEETAGVVSTNLIRNGDWTFQILVMLEMTPQQGDVYTCQVEHTSLDSPVTVEWKAQSDSARSK
notes: as for B6

Columns and labels:
[1] = biological target: T1, soluble CD4 (sCD4): human CD4 extracellular domain fused with a 6×His tag via a GS linker, dimerized with a … (human, UniProt P01730 26-396); assay: flow cytometry, K562 cells
T1 construct: also called soluble CD4 protein; soluble CD4 dimer

[2] = biological target: T2, recombinant 10× His-tagged CD4 protein (extracellular domain of human CD4, GS linker, 10× histidine tag) (human, UniProt P01730 26-390); assay: biolayer interferometry
T2 construct: also called recombinant CD4; sCD4 (analyte)

[3] = biological target: T2, recombinant 10× His-tagged CD4 protein …; assay: BLI KD set against the earlier estimate of KD >2 mM between CD4 and HLA class II
[4] = biological target: T2, recombinant 10× His-tagged CD4 protein …; assay: biolayer interferometry (Octet Red), biotinylated DP4 on streptavidin sensors, CD4 as analyte, steady-state fit
[5] = biological target: T1, soluble CD4 (sCD4): human CD4 …; assay: flow cytometry, sCD4 MFI of K562 cells

| Binder | binding result [5] | further results |
| --- | --- | --- |
| B1 | – | binding result [1]: no binding |
| B2 | – | binding result [2]: no binding (tested: 26 µM) |
| B3 | – | fold improvement in the binding affinity [3]: ≥ 200 fold; Kd [4]: 8.9 µM |
| B4 | no binding | – |
| B5 | no binding | – |
| B6 | no binding | – |
| B7 | no binding | – |
| B8 | no binding | – |
| B9 | no binding | – |
